In a protein production outcome set (Wang et al. 2014):

Assay: label from the status in PepcDB records

MVEIFLRTLPFFVIIGLGFWAGRTRFFTPEATAYLTKFVFFFALSAMLFRFAATLPFAEIFNGQLVMGYLWGTAGVYGIASLVAFLRKLDVPTAAVEAQCAAIGNVGFLGLPMLAMLFGEAAIGPVMLVLSVDLIVFSSLIVILINGGRDGRLSLGTLRLIGMGLLKNPMIVSISAGLIWSSLRLPIPAPLNDFLTILGGAATPGALFAIGASLAGRSAERVQIAAWLSLCKLVIHPILVALAVLWVFPVDAFSASVAIAAAALPVAGNVYMLAAHYGVAPQRASAAILLSTAVSILTVPAFIAWVTSA
protein production: failed

DGRCISLLKILMTNFCIFDCAYCVNRVSSRVERARFSVEEVVTLTVEFYRRNYIEGLFLSSGIIRSPDDTMADMVRIAKTLREREHFRGYIHLKTIPDAAPELIEQAGLYADRLSINVELPTEAGLDRFAPEKSATGIRKAMAEVRLKREASREPSFSGRRPSRFA
protein production: failed

MINHKIFPTADAVVKSLADDMLAYSQQGQPVHISLSGGSTPKMLFKLLASQPYANDIQWKNLHFWWGDERCVAPDDAESNYGEANALLFSKINMPAQNIHRILGENEPQAEAERFAQAMAHVIPTENGTPVFDWILLGVGADGHTASLFPGQTDYADANLSVVASHPESGQLRVSKTAKVLQAAKRISYLVLGAGKAEIVEQIHTTPAEQLPYPAAKIHSTSGVTEWYLDSDAAAKIA
protein production: not failed

MVQSSVRRKGARPRDRQTGEPGWDDSLYDDNGEPVQDGRGSGRGGGSAQGGGDGDGPPDEAKGHSRHGGGRRRGGKGDGGGGRPRRRRRVLRWSATVLAVLILGTAGAGYLYYQHLNDNIKKDDLYLGDDKDRAAKPKANAAGQTPLNILLIGSDARDSAANQKLGGAKDTYGGTPRADVQMLLHLSADRSNMSVVSMPRDTLLEIPKCTDPKTSHTYAAITYPTMTNNSLGRGGPGCTVATWEKFTDIHIDHFMMVDFAGVVSMADAIGGVPVCVDANIYSHTSTGHGSGLKLKDGTTSIKGKQALQWLRTRYGFEDGSDIGRTKAQHQYMNSMVRQLRENATLSNPNKLRKLAETATNALTVDDGLGTVSKLYDLSKELKKVPTSRITMTTMPWVYSSDGNRVLPKPNDAAKVFRLLREDIALDGKDKKKSPAQKAVAPAHADDKIAVQVQNGTRTSALAPVGGRANAMAQLLVGKGFTGAAADSSTVLSEDKTVIRYPSADLKGDAQRVAKSLGVPLSSVEKSASVSGVTLIVGGDWRSGTTYKAAEDDDTTPASAKLDKGSDTGACMHVDPDYTWS
protein production: failed

MAYEERRSSILDSFSLSPLPYPVLLILAVASVFLLSSWYFSLEEAAESAEEQINFALLLIPLFLIVLVRWLSSMENPDALLGMFSSSRRTTYVSPGAGGDGGSSPWGVAALIVLLLVLLQYQSSFLEMWSG
protein production: failed

MTSSMLFNITTFTYLVSMLAFFAFLASRNRHLGMAGSLISYFGFFVHTAAILLRWKESYDIGHGHAPLSNLYESVVFFAWTIVLIFGIIDLKYKYRVVGAFVMPFALLGMAWAQLTLNSGIEPLVPALQSNWLLYHVVTCFLGYAAFAVACGISIMYLIKAGKEDSSQSAQAGGIISMFPPTKILDDLNYKAIMIGFPLLTLGIITGAAWANYAWGTYWSWDPKETWSLIVWFVYAAFLHARFTRGWVGKRAAILSIVGFAATIFCYLGVNLLLSGLHSYGGG
protein production: failed

MTAQLISPTIHGILDYLLGAVLVVAPSVLGLPTGPAVIAYAVGGAHLAMSLLTGYAPGALRVIPFWAHGAVEAAGWAGLLVFLGLLTAPADGLFLASGVGILVVSALTDYGVETDGVRLRARRHAHARP
protein production: failed

MAASQTPARILVTGVAGNLGRKVVEALASTPWCTSIIGVDWVEQSMQFSPQAAQRLRWVVADLTQADGAWTALLDEVDAVIHLAAIHSTPDATWEQALASYGMTLNVLQAAATRGVRRFVFASSNHAMGAYKDQPLAGTIGPGRLIAELAPAPGTRWHNGIEEVYSLAYGTSKAMGERLCKAVAAVSGGRLSVVALRIGWALPDDNDPNDINHSGTADTPVPGSVPDEASRIALRWFRNMWLSNDDLRQLFIAAVTADPARWPAPAIVVNGVSNNTGMDWGLETGRALIGYEPQDDLYARLTQPA
protein production: failed

MSQLPTLIADLALILICAGVMTLLFKKLKQPLVLGYVVAGFLASPHMPYTPSVMDTANIKTWADIGVIFLLFALGLEFSFKKIVKVGGSAIIAACTIIFCMILLGIGVGMGFGWHRMDSLFLGGMIAMSSTTIIYKAFDDLGLRKKQFTGLVLSILILEDILAIVLMVMLSTMAVSHNFEGTEMLESIGKLLFFLILWFVVGIYLIPEFLKRCRKLMGEETLLIVSLALCFGMVVMAANTGFSAAFGAFIMGSILAETIEAESIDRLVKPVKDLFGAIFFVSVGMMVDPAMIIEYAIPIIVITIAVILGQATFGTFGVILSGKPLKTAMQCGFSLTQIGEFAFIIASLGVSLHVTSDFLYPIVVAVSVITTFLTPYMIRLAEPASSFVDAHLPASWRKFLMRYSSGSQTVLNHENLWKKLLLAMVRITVVYSIVSISIIALSFRFVVPFFKENLPHFWASLLGAVFIILCISPFLRAIMVKKNHSVEFMTLWHDNRANRAPLVSTIVIRIMIAALFVIFVISGLFKASIGLIIGVAVLAVLLMVWSRRLKKQSILIERRFFQNLRSREVRAEYLGEKKPEYAGRLLSHDLHLADLEIPGESTWAGKTLMELNLGKKYGIHIASILRGKRRINIPGGSVRLFPMDKIQVIGTDEQLNVFSSAMQSGAKIDWEMYEKGEMTLKQFIIDADSVFLGKTIRESGIRDKYHCMIAGVEREDGTLMVPDVNAPFEEGDVVWVVGEKENVYQLVDQKNEKIQVK
protein production: failed

KMPSPYSHKEFVKEIAPTAQKLSKIYGVRSSIIIGQAALDSHFGSTLLASKYHNLFSIEASPGQGAVRLKSHEYKNGRWQEVTNRYLVYESWKESLYDYMAILHGNKIWDKALYTTMMTSSGYKTVARALQAAGFNSDPNYADKLIAVIEENNL
protein production: not failed

MGSMLLNGAKMKYGNLSLKCMVQNQKALNFYLSQGFEIVSQVDDELGGYYYMSFVAQT
protein production: failed

MSSQLNHGTLPKISIVTPSYNQAQYLEATMRSILDQGYPDLEYIVMDGGSTDGSTEIIQKYSDRLTYWESAPDKGQADAIFRGFERATGEIFCYVNSDDLLLPGSLEMVGRWFREHPDEEWVVGGTILIDGLGIPIIRSRRGLPEADLGVKVTFKRLLLHNCGGFHQPASFWRRSAFEQAGGFDRTLRFCFDYDLFFRLAKRRPSGRIRSFLAAFRYHPASKTSTLESVFREENETLWRRYGRYLYSENQIRNFAHKQTTRDMWNNRIIKLGFYLKILNVSNAIGSLEHHHHHH
protein production: not failed

WWNWKGHEVHLDCFRNEKAPVKVILLHGVGTNGRQMSMILGGPLSKDGFETIAIDMPTYGVTKVKKGSVVKYDDWVDLACDYIDYEQQRDDRPIVLYGLSAGGMETYHVAAKNKKVKGIIGMTFLDQKNQQVRDETAKNLVMSRVGIPMAGIACNIGLENFKMKMSTASKMSALCNNEKVMEIFNRDKTSAANKASMRFLDSYGNYQPAMEPEDFDVCPILLTQPEQDKWTPLHLSTPFLNKIKKVDVKIVMLENGGHYPVEQPALDQMHDAIVEFIYKVTK
protein production: failed

MKQSLQIWLEAARPKTLPLALVSILTGSVLAYSAGHFSLTIAIMAFATATLLQILSNLANDYGDAVKGTDNENRLGPQRAMQTGAVSAKQMKQAIIFNIVLTAISGLVLVFYALSSPESIITFIGLGILAIIAAIAYTMGSKPYGYVGLGDISVFLFFGLLGVSGTYFLHTGHVDTTLFLPALGCGLLAVAVLNINNMRDIENDRECGKRTVAVRLGQHKAKQYHFILLGGAILAFAAYLLIQDKPLWISLPFLLSVYVVIHHGKAVWDTEKPAQIAPMLPVIVKCSLVTNVLFATIVVAQTLVS
protein production: failed

EMRKFLVVLDDSRECLNAMRFAAMRAAHTGGGVAILSIIPPDEFNHWIGVGEVMREEARERIHAHFEVFAKWMRDKQGVEPELVIREGEAVPEIIAHVQEDPEIGVLVLGAGTDKKGPGPLVSQLSRSSGSLPIPITIVPGDLSKE
protein production: failed

MPNRKASRNAYYFFVQEKIPELRRRGLPVARVADAIPYCSSDWALLREEEKEKYAEMAREWRAAQGKDPGPSEKQKPVFT
protein production: not failed

MCEGHTRNDPCERRHDPGARVRRKAGKIRSMILVFFSLCLGALIGALFRFPWYMLFLLAAIFWKRNKDISVVIFFTLLSASLYQIGTLPAGNYELVGYAERGRLKQVKVFQEEWKRIHPVRIETSEEGYVYAIGYFDGKAFHPSYLKKVEKPSLKTLKESFSGMANGTVLSVLFGEKNGDIYRSGLGHFFAVSGLHVGIAFSLYTTLLSFLTWRRTYQELTALLLLVPYVIAVGTPSVIRAYLTIFLWVAFKIFGFRTTPLHTTATVGSFMMIVDPTVVFTPSFLLSFFVTLCILESKNIFELTVKAYLSALPFLCLFFGGTNMSALVLSIPVSLLMIPVTWLAHLSFLLFLLGLKTSALIAAKITNIVSLPLNGFIKLANLLPEVPLPQYLYFILIFFPLLFLSPDIRDIFRKISGRAIL
protein production: failed

MIDVLVQLKSEELILKQRVITAVVALIIFIPIVFLGGTLIEIAALALAVVAMSEVLIMKRILLVTPEAIISILGTLFLVAPKSWMHDLPSQINTPFVSLIFAIALMVRVVFSKNRFNFDDAGVLTLTMLYIGFGFNMFVQARTVGLGMLMYLLLTVWSTDSGAYLVGRKIGKTKLAPQISPNKTWEGSIGGTIVAVIVGIIFSVTGLIHYGILATILMTLFLSIAGQLGDLVESSLKRYYGVKDSGRILPGHGGILDRFDSLLLVLPMAYLLGLL
protein production: failed

MCASKRSFFMSNSKFNVRLLTEIAFMAALAFIISLIPNTVYGWIIVEIACIPILILSFRRGLTAGLVGGLIWGILSMITGHAYILTLSQAFLEYLIAPVSLGIAGLFRQKTASLKLVPVLLGTFVAVLLKYFFHFIAGIIFWSQYAWKGWGAVAYSLAVNGISAILTAIAAFVILIIFVKKFPKLFIYSNY
protein production: failed

MAMVASVSMAFVLVFCTILLFHFVQQSRFTTATQLESIARSVREPLSAAILKADIPEAEAILSRIQPAGIVSRADVVLPNQFQALRMRFIPERPVPVTVTRLFELPVQISLPIYSLERPANPQPLAYLVLQADSYRMYKFVMSALATLVTAYLLLVLMLTVALTWCINRLMVRPLRRIARELNDLSQQERLGHQLTLPRLHHDDEIGMLVRSYNRNQQSLVRQHDELSIQSTRFPVSELPNKAFLLAMLEQTVARPQSAALIVVACETLQDAAGVLKESQREMLLLTLVEKLRAAIPPQMVLAQVSGYDFAILADGLAEPWQAVTLSKQVLTIINERLPLHGLQLRPYASVGIAMFHAGLSAEQFYRRAVSAAVTARRKGKNQIEFFDPEQMEKAQRRLMEEHDIMTALDNQQFAIWLQPQVACASGEICGAEVLLRQRQADGSWSLPPSLIERIESCGLIIPVGYWVMEEACRQLAAWQSQGIMLPLSVNVSLLQLLEHDRGEEMLKLIARYRIAPGTLILEVTESCRMDDPQDVMARLRPLREAGVQIALDDFGMGYAGLHQLQQMKALPVDILKIDKVFIDMLPEDVSMVPAMIQLARGLSLRIVAEGVENDAQRRWLQAAGVEVLQGHLFGCALPQEAFSARYLSPAREDVNL
protein production: failed

MKVLLIIPAYNEEENILRTIASIETFKQEVTHFQHELDYVVINDGSTDGTKQILEANQINAIHLVLNLGIGGAVQTGYKYALENEYDVAVQFDGDGQHDINSLPILLEPLAEGKCDFSIGSRFIPGNEASFQSTKMRRFGIRLLSFCIRMASGKTIYDVTSGYRAGNRKVIAFFAKRYPTNYPEPESIVHLIKKRFVIVERPVNMMERLGGVSSIRALASVKYMLEVGSAILIAAFMKEGDLEHHHHHH
protein production: not failed

MAETIISLLSPTLDIKSPYYFNPDYLHQFNMHTNTAIDKLSEAKDNYAIWKLRFFDLLQFTNKTGFIDGTLPKPDPSSPYYEPWKQCNAIVLHWLSNTVTDTLQNHVLQAETVHKAWEDLRRIFVPCIDFKIYELRQRLATLRQGGDSVAEYFGKLSKAWLELKAYDPVQECKCGGCDCESEKRATEAREKEQRYAFLMGLNKEFDYVKMKVMHKKIPPSVYQAYEMVVYSEAMMKWKMGGRI
protein production: failed
